Reference: PMC6343778 (mAbs, 2018)

T1: human MICA*008 α3 domain with a C-terminal His8 (Homo sapiens, MICA*008)
T1 chain: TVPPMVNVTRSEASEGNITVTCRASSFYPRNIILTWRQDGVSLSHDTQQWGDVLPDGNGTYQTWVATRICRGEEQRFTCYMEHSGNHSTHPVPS


How the values were obtained:
[1] = differential scanning fluorimetry; settings: glycan gained; control: wild-type HER2 ECD alone or human IgG1 Fc alone
[2] = target: T2, human MICA*002 α3 domain with a C-terminal His8 (Homo sapiens, MICA*002, UniProt Q29983); test: SPR
[3] = target: T3, human MICA*004 α3 domain with a C-terminal His8 (Homo sapiens, MICA*004, UniProt Q29983); test: SPR
[4] = target: T1, human MICA*008 α3 domain with a …; test: SPR
[5] = target: T4, human MICB*005 α3 domain with a C-terminal His8 (Homo sapiens, MICB*005, UniProt Q29980); test: SPR
[6] = target: T2, human MICA*002 α3 domain with a …; test: cell-based or functional assay
[7] = target: T3, human MICA*004 α3 domain with a …; test: cell-based or functional assay
[8] = target: T1, human MICA*008 α3 domain with a …; test: cell-based or functional assay
[9] = target: T4, human MICB*005 α3 domain with a …; test: cell-based or functional assay

Row | Molecule | Kd [2] | Kd [3] | Kd [4] | Kd [5] | EC50 of inhibition of MICA*002 shedding from the PANC1 cell line [6] | EC50 of inhibition of MICA*004 shedding from the HCC1534 cell line [7] | Max % inhibition of MICA*004 shedding from the HCC1534 cell line [7] | EC50 of inhibition of MICA*008 shedding from the MEL-JUSO cell line [8] | EC50 of inhibition of MICB*005 shedding from the HCC1534 cell line [9] | Max % inhibition of MICB*005 shedding from the HCC1534 cell line [9] | stability_or_folding [1]
1 | HER2 ECD: V308N |  |  |  |  |  |  |  |  |  |  | no change
2 | HER2 ECD: K333N |  |  |  |  |  |  |  |  |  |  | no change
3 | HER2 ECD: S310N |  |  |  |  |  |  |  |  |  |  | no change

Further lines, with some results ahead:

Row | Kd [2] | Kd [3] | Kd [4] | Kd [5] | EC50 of inhibition of MICA*002 shedding from the PANC1 cell line [6] | EC50 of inhibition of MICA*004 shedding from the HCC1534 cell line [7] | Max % inhibition of MICA*004 shedding from the HCC1534 cell line [7] | EC50 of inhibition of MICA*008 shedding from the MEL-JUSO cell line [8] | EC50 of inhibition of MICB*005 shedding from the HCC1534 cell line [9] | Max % inhibition of MICB*005 shedding from the HCC1534 cell line [9] | Molecule | stability_or_folding [1]
4 | 0.675 nM | 0.486 nM | 0.42 nM | 1.09 nM | 0.0341 µg/mL | 0.0136 µg/mL | 65% | 0.0207 µg/mL | 0.0386 µg/mL | 59% | anti-MICA/B antibody 1D5 (hybridoma-derived mouse antibody) (antibody, V domains shown) VH: EIQLQQSGPELVKPGASVKVSCKASGYAFTSQNIYWVKQSHGKSLEWIGYIEPYNVVPMYNPKFKGKATLTVDKSSSSAYIHLNSLTSEDSAIYYCARSGSSNFDYWGQGTTLTVSS VL: EIILTQSPTTMAASPGEKITITCSASSSISSHYLHWYQQKSGFSPKLLIYRTSNLASGVPARFSGSGSGTSYSLTIGTMEAEDVATYYCQQGSSLPLTFGAGTKLEIK | 
5 | 2.96 nM | 8.42 nM |  | 5.75 nM |  |  |  |  | 0.0724 µg/mL | 58% | anti-MICA/B antibody 6E1 (hybridoma-derived mouse antibody) (antibody, V domains shown) VH: QGQMQQSGAELVKPGASVKLSCKTSGFTFSDNYISWLKQKPGQSLEWIAWIYAGTGGSSYNQKFRDKAQLTVDTSSRTAYMQLSSLTTEDSAIYYCARHDYYGTSGAWFAYWGRGTLVTVSA VL: DVLMTQTPLSLPVSLGDQASISCRSSQHIVHSNENTYLEWYLQKPGQSPKLLIYKVSNRFSGVPDRFSGSGSGTDFTLKISRVEAEDLGVYYCFQGSHVPWTFGGGTKLEIK | 
6 | 0.499 nM | 1.55 nM | 0.94 nM | 0.968 nM | 0.418 µg/mL | 0.599 µg/mL | 56% | 0.794 µg/mL | 0.0349 µg/mL | 76% | anti-MICA/B antibody 13A9 (hybridoma-derived mouse antibody) (antibody, V domains shown) VH: QVQLQQSGAELVRPGTSVKVSCKASGYAFTNYLIEWVKQRPGQGLEWIGAINPGSGATNYNEKFKDKARLTADKSSNTAYLQFSSLTSDDSAVYFCARFLGNYFDNWGQGATLTVSS VL: DIQMTQSPASLSASVGETVTITCRASGNIHSYLAWYQQKQGKSPQLLVYYAETLADGVPSRFSGRGSGTQYSLKINSLQPEDFGSYFCQQFWTTPYTFGGGTKVEIK | 
